In patent US8114832:

Experiments:
[1] = target: T1, non-amyloid fragment FP10 of human fibrin α-chain(148-157)
T1 chain: KRLEVDIDIK

[2] = target: human-modified gelatin (Gelofusine), stored at 4° C.
[3] = target: glycated hemoglobin (Hb-AGE), P69905
mIAPP = target: T2, mIAPP
T2 sequence (P12968 38-74, species assumed, looked up): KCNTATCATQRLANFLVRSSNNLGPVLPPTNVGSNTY

[4] = target: modified gelatin for infusion stored at 37° C.
[5] = target: T3, freshly dissolved FP13 K157G
T3 chain: KRLEVDIDIGIRS

[6] = target: T4, human fibrin α-chain(148-160) amyloid fragment with Lys157Gly mutation (FP13)
T4 chain: KRLEVDIDIGIRS

[7] = target: Human amyloid-β (1-40) Dutch type
[8] = target: heat-denatured MSA, P07724
[9] = target: reduced-alkylated MSA (alkyl-MSA), P07724
[10] = target: Native MSA (nMSA), P07724
[11] = target: T5, heat-denatured OVA (dOVA), P01012
T5 chain: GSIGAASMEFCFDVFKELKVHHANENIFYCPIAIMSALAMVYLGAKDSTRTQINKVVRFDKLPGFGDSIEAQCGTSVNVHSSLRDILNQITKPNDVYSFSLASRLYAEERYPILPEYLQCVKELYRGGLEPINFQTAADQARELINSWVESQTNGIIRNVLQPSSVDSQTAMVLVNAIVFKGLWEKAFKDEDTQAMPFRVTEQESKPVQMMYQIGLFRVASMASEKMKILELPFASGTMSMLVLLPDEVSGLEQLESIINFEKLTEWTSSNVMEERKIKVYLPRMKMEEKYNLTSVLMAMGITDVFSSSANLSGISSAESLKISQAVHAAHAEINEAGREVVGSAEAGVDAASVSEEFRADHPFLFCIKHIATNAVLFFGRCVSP

[12] = target: heat/acid denatured glucagon, P01275
heat/acid denatured glucagon, P01275, sequence (P01275 53-81): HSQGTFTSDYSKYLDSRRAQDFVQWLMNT

endostatin, P39060, sequence (P39060 whole entry, looked up): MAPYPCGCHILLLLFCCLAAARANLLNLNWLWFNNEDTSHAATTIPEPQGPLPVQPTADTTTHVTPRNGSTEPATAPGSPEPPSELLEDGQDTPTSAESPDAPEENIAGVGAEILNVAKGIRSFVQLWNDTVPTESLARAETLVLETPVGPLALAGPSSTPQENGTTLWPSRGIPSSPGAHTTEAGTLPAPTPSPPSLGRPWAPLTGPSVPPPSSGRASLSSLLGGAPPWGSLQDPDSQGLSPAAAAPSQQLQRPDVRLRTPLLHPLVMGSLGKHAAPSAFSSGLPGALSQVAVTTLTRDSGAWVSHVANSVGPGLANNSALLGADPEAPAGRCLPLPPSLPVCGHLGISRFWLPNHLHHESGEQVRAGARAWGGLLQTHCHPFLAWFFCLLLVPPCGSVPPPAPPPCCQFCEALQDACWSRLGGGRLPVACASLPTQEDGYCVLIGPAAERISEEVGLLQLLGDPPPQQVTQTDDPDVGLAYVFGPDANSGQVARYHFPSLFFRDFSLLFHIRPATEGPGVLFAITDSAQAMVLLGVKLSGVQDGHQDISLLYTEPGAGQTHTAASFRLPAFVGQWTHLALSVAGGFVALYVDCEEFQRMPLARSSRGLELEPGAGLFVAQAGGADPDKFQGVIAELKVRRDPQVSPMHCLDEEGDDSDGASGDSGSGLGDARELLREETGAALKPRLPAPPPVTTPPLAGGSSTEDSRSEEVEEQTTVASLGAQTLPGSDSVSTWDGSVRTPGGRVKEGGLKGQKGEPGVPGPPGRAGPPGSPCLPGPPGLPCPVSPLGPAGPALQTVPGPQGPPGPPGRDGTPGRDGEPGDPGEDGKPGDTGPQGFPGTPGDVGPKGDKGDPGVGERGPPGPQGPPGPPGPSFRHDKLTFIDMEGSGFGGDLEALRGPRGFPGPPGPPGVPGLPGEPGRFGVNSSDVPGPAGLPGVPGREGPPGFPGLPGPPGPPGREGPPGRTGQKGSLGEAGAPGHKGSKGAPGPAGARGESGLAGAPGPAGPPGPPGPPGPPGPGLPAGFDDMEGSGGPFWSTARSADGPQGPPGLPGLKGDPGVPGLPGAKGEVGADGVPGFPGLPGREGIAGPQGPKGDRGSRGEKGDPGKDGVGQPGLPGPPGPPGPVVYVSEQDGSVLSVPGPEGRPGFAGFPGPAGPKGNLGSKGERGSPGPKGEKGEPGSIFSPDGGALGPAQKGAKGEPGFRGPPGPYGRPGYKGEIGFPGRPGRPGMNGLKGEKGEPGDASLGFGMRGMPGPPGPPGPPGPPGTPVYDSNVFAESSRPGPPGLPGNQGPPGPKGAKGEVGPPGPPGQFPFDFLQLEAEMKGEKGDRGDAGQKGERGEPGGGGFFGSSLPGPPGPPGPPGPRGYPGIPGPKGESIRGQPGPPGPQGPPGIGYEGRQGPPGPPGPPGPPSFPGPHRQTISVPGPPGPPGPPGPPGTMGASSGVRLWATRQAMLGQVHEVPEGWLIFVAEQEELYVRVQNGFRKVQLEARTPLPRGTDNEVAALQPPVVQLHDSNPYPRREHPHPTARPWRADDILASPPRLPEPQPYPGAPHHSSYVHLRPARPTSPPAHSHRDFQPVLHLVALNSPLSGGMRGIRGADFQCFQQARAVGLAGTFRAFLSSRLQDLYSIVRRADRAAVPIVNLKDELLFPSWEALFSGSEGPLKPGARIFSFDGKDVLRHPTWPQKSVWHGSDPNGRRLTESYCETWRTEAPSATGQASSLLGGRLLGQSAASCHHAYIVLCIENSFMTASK
glycated hemoglobin (Hb-AGE), P69905, sequence (P69905 2-142, chain 1 of 2): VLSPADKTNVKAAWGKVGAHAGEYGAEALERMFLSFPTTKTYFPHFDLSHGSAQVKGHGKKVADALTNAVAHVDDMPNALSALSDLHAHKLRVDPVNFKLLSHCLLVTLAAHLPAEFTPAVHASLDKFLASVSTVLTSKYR
glycated hemoglobin (Hb-AGE), P69905, sequence (chain, as listed by the source, chain 2 of 2): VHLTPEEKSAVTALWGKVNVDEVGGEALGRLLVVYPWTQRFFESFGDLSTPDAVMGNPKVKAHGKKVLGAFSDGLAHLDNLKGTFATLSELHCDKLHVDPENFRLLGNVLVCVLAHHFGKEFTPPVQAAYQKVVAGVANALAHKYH
native Hb, P69905, sequence (P69905 2-142, chain 1 of 2): as the sequence (P69905 2-142, chain 1 of 2) above
native Hb, P69905, sequence (chain, as listed by the source, chain 2 of 2): as the sequence (chain, as listed by the source, chain 2 of 2) above
heat-denatured MSA, P07724, sequence (P07724 25-608): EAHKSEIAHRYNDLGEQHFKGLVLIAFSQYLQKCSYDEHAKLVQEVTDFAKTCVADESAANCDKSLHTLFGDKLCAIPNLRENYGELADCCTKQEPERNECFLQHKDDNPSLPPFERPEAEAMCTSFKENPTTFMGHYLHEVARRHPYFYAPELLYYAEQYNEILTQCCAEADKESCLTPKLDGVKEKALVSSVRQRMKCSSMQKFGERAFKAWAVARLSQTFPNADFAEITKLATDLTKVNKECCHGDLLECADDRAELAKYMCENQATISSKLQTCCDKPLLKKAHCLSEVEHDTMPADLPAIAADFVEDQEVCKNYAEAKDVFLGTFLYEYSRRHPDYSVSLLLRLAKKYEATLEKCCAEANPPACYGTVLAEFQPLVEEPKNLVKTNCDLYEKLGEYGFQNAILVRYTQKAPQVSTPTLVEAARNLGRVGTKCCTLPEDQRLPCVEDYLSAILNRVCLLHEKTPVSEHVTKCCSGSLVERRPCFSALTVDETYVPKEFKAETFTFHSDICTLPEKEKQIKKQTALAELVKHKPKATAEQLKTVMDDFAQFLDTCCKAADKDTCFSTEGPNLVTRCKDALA
Native MSA (nMSA), P07724, sequence (P07724 25-608): as above
reduced-alkylated MSA (alkyl-MSA), P07724, sequence (P07724 25-608): as above

B1: factor XII (protein)
chain: IPPWEAPKEHKYKAEEHTVVLTVTGEPCHFPFQYHRQLYHKCTHKGRPGPQPWCATTPNFDQDQRWGYCLEPKKVKDHCSKHSPCQKGGTCVNMPSGPHCLCPQHLTGNHCQKEKCFEPQLLRFFHKNEIWYRTEQAAVARCQCKGPDAHCQRLASQACRTNPCLHGGRCLEVEGHRLCHCPVGYTGAFCDVDTKASCYDGRGLSYRGLARTTLSGAPCQPWASEATYRNVTAEQARNWGLGGHAFCRNPDNDIRPWCFVLNRDRLSWEYCDLAQCQTPTQAAPPTPVSPRLHVPLMPAQPAPPKPQPTTRTPPQSQTPGALPAKREQPPSLTRNGPLSCGQRLRKSLSSMTRVVGGLVALRGAHPYIAALYWGHSFCAGSLIAPCWVLTAAHCLQDRPAPEDLTVVLGQERRNHSCEPCQTLAVRSYRLHEAFSPVSYQHDLALLRLQEDADGSCALLSPYVQPVCLPSGAARPSETTLCQVAGWGHQFEGAEEYASFLQEAQVPFLSLERCSAPDVHGSSILPGMLCAGFLEGGTDACQGDSGGPLVCEDQAAERRLTLQGIISWGSGCGDRNKPGVYTDVAYYLAWIREHTVS
B1 was tested, and the “conversion of Chromozym PK, upon formation of kallikrein from prekallikrein by activated factor XII” value (“conversion of Chromozym PK” below) [1] was “non-amyloid controls FP10 and mIAPP do not activate factor XII”, the “chromogenic kallikrein activity assay” value [2] was “Only gelatin kept at 37 °C activated factor XII” and the “auto-activation of purified factor XII, substrate S-2222” value (from here on “auto-activation of purified factor XII”) [3] was “FP13 K157G and Hb-AGE have a potency to induce auto-activation that was similar to the established surface activator DXS500k”. For the same protein, the “conversion of Chromozym PK” value (mIAPP) was “non-amyloid controls FP10 and mIAPP do not activate factor XII”, the “factor XII/kallikrein chromogenic assay” value (TTR11) was “cross-β structure conformation rich peptides LAM12 and TTR11 stimulate factor XII activation, to a similar extent as kaolin” and the “chromogenic kallikrein activity assay” value [4] was “Only gelatin kept at 37 °C activated factor XII”. The “factor XII/kallikrein chromogenic assay” value (LAM12) was “cross-β structure conformation rich peptides LAM12 and TTR11 stimulate factor XII activation, to a similar extent as kaolin”, the “auto-activation of purified factor XII” value [5] was “Freshly dissolved native Hb, ultracentrifuged for one hour at 100,000*g, and freshly dissolved FP13 K157G did not or hardly auto-activate factor XII (not shown)” and the “auto-activation of purified factor XII” value [6] was “FP13 K157G and Hb-AGE have a potency to induce auto-activation that was similar to the established surface activator DXS500k”. The “conversion of Chromozym PK” value [6] was “amyloid-like peptide aggregates of FP13 and Aβ stimulate the activation of factor XII”, the “auto-activation of purified factor XII” value [7] was “the potency of the Aβ(1-40) E22Q was somewhat lower” and the “conversion of Chromozym PK” value [7] was “amyloid-like peptide aggregates of FP13 and Aβ stimulate the activation of factor XII”. For the same protein, the “auto-activation of purified factor XII” value (native Hb, P69905) was “Freshly dissolved native Hb, ultracentrifuged for one hour at 100,000*g, and freshly dissolved FP13 K157G did not or hardly auto-activate factor XII (not shown)”.

B2: tissue-type plasminogen activator (tPA) (protein)
chain: SYQVICRDEKTQMIYQQHQSWLRPVLRSNRVEYCWCNSGRAQCHSVPVKSCSEPRCFNGGTCQQALYFSDFVCQCPEGFAGKCCEIDTRATCYEDQGISYRGTWSTAESGAECTNWNSSALAQKPYSGRRPDAIRLGLGNHNYCRNPDRDSKPWCYVFKAGKYSSEFCSTPACSEGNSDCYFGNGSAYRGTHSLTESGASCLPWNSMILIGKVYTAQNPSAQALGLGKHNYCRNPDGDAKPWCHVLKNRRLTWEYCDVPSCSTCGLRQYSQPQFRIKGGLFADIASHPWQAAIFAKHRRSPGERFLCGGILISSCWILSAAHCFQERFPPHHLTVILGRTYRVVPGEEEQKFEVEKYIVHKEFDDDTYDNDIALLQLKSDSSRCAQESSVVRTVCLPPADLQLPDWTECELSGYGKHEALSPFYSERLKEAHVRLYPSSRCTSQHLLNRTVTDNMLCAGDTRSGGPQANLHDACQGDSGGPLVCLNDGRMTLVGIISWGLGCGQKDVPGVYTKVTNYLDWIRDNMRP
With B2 the tPA activation assay [8] was “Although heat-denatured MSA and alkylated MSA enhance ThT fluorescence to a similar extent, they differ in tPA activating potential”, the tPA activation assay (native glucagon, P01275) was “at high glucagon concentration, also native glucagon has some tPA activating potential” and the tPA activation assay [9] was “Although heat-denatured MSA and alkylated MSA enhance ThT fluorescence to a similar extent, they differ in tPA activating potential”. For the same protein, the Plg-activation assay [10] was “native MSA enhanced ThT fluorescence to some extent, but this was not reflected by stimulation of tPA activation”, the Plg-activation assay [11] was “The presence of the cross-β structure conformation was established with ThT fluorescence and Plg-activation assays and by TEM imaging” and the tPA activation assay (endostatin, P39060) was “the absence of tPA activating properties in 100 µg ml^-1 endostatin”. For the same protein, the “chromogenic Plg-activation assay” value [6] was “The positive control was amyloid fibrin peptide FP13” and the tPA activation assay [12] was “a potent activator of tPA was obtained”.
